Measured values from patent US20070036810A1, “Cyclic amp response element activator proteins and uses related thereto” (priority 2003, published 2007).
Each block holds one substance with its values, some of them ahead of it.

Molecular target: GAL4-CREB fusion protein (Stratagene): CREB activation domain fused with the yeast GAL4 DNA binding domain (amino acids 1-147) (yeast) (UniProt P04386)
Assay: cell-based or functional assay

Fold Induction (luciferase from the genome-integrated pFR-Luc/UAS-Luc reporter in HLR cells, GAL4-CREB co-transfected with CREAP3, normalized to pCMV-BD vector): 448 fold
Substance: human CREAP3, full length (from UniProt Q6UUV7 1-619)

Fold Induction (luciferase from the genome-integrated pFR-Luc/UAS-Luc reporter in HLR cells, GAL4-CREB co-transfected with CREAP2, normalized to pCMV-BD vector): 178 fold
Substance: human CREAP2, full length (from UniProt Q53ET0 1-693)

Fold Induction (luciferase from the genome-integrated pFR-Luc/UAS-Luc reporter in HLR cells, GAL4-CREB co-transfected with CREAP1, normalized to pCMV-BD vector): 233 fold
Substance: human CREAP1 (CRE activating protein 1), full length (from UniProt Q6UUV9 1-634)
